Ends that are not written are not given here.
Legend:
Aβ42 [1] = target: T1, Aβ42 (Homo sapiens, UniProt P05067); test: Spiking and recovery test of Aβ42; conditions: PBS, 100 μM peptide assay, triplicate
T1 construct: purchased Abcam ab120301
Procedure: PBS and human serum were used as solutions for the spiking test. Each of the Aβ42 and Aβ40 stock solutions was diluted using PBS, and the mixture was diluted using human serum. The diluted samples were added to antibody-coated plates and incubated for 2 h. The binding conditions used for the antibody coating and the peptide, streptavidin, and TMB treatment steps are described above. To calculate the recovery ratio, we divided the signals of the mixtures by the signals of Aβ42.

Aβ42 [2] = target: T1, Aβ42; test: Binding of synthetic biotinylated peptide to Aβ42 captured on antibody-coated plate (enzyme-linked peptide assay, OD450); conditions: biotin-conjugated peptide serially diluted, 1 h, PBST, Aβ42 captured by anti-Aβ42 antibody (protein G plate), streptavidin-HRP/TMB, Hill-slope fitting, triplicate, read-out: dissociation constant (KD)
Procedure: ABPP was conjugated with biotin as a signal reporter, with a purity greater than 95%, as assessed using high-performance liquid chromatography. The binding affinities of peptides were estimated for each Aβ42- and antibody-coated plate. The coating methods followed the protocol described above, except for the use of PBST instead of TBST. After coating the plate with Aβ42, serially diluted peptide was added to the plate for 1 h. After peptide incubation, all wells were washed four times with PBST. Next, the wells were incubated with 100 µL of streptavidin-HRP (1:4000 in PBST) for 1 h. After incubation, the solution in the wells was washed four times with PBST. TMB solution was added to each well for 15 min. Next, 100 µL of 1 M H2SO4 was added to the wells to stop the reaction, and the absorbance was measured at 450 nm (OD450) using a microplate reader. To determine the detection range, serially diluted Aβ42 was added to the antibody-coated plates. After washing, the plate was incubated for 1 h with 100 µL of 100 µM peptide. Streptavidin and TMB treatment steps were performed as described above. Based on the measurements, the limit of detection (LOD) for the diagnostic system was calculated according to the formula from the IUPAC: LOD = 3 × SD/slope. To verify the specificity of our diagnostic system, other amyloid proteins were added to the antibody-coated plates. […]

T1 sequence (P05067 672-713 limits assumed): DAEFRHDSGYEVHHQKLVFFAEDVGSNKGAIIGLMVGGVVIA

Row | Substance | Average Recovery (Aβ42 [1]; Aβ40 + Aβ42 = 10 + 40 ng/mL, SD 12.46%, %RSD 12.84) [%] | Average Recovery (Aβ42 [1]; Aβ40 + Aβ42 = 20 + 40 ng/mL, SD 5.81%, %RSD 6.053) [%] | Average Recovery (Aβ42 [1]; Aβ40 + Aβ42 = 40 + 40 ng/mL, SD 10.51%, %RSD 10.15) [%] | Kd (Aβ42 [2]) [µM]
1 | Aβ42: Aβ42 (ab120301) purchased from Abcam; analyte spiked in recovery test | 97.02 | 96.04 | 104.5 | 
2 | SEPQNIWQYLRN [ABPP] |  |  |  | 17.5 ± 2.98
